doi:10.1101/2021.08.12.455998

Tests used:
[1] = target: empty disulfide-stabilized HLA-A*02:01 molecule (HLA-A*02:01(Y84C/A139C) heavy chain with beta-2 microglobulin) (human); assay: nDSF thermal shift
[2] = target: empty disulfide-stabilized HLA-A*02:01 molecule (HLA-A*02:01(Y84C/A139C) heavy chain with beta-2 microglobulin) (human); assay: native MS

| Binder | ΔTm [1] [K] | percent of dsA2 as dsA2/pep (AUC) at 10 V [2] [%] | stoichiometry N [2] | Kd [2] [µM] |
| --- | --- | --- | --- | --- |
| GLGGGGGGV [GV9] | 6.4 | 43 | – | – |
| MVATV [MV5] | – | – | 2 | – |
| NLVPMVAT [NT8] | – | – | – | 30 |
| LVPMVATV [LV8] | 11.6 | – | – | 0.07 |
